Patent publication US20060257938A1, “Method of screening for drugs that block ligand binding to a lipid binding protein” (priority 2005, published 2006)

Columns and labels:
Assay type in all cases: binding
[1] = Probe fluorescence ratio response to stearic acid relative to ADIFAB2; conditions: response relative to ADIFAB2
Description: (§1) In an alternate preferred embodiment, the protein is rI-FABP that has Ala substituted for Leu at position 72 (rI-FABP-L72A) with the resulting probe named ADIFAB2. […] Other probes useful in embodiments of the invention are shown in Tables 1-6 and are also described in U.S. application Ser. No. 11/085,792, filed Mar. 21, 2005 which is incorporated herein by reference. The indicated substitutions are with reference to the ADIFAB protein of SEQ ID NO: 2.
(§2) ADIFAB2 also has an altered spectral response, making it especially useful for measurements of FFAu in blood samples (Apple et al, Clinical Proteomics, (2004) 1:41-44, U.S. patent application Ser. No. 10/670,958). The wavelengths at the maximum intensities emitted by these fluorescently-labeled I-FABP's in the absence of FFA is about 420 to 480 nm. The emission wavelengths at the maximum intensities emitted by these fluorescently-labeled I-FABP's with FFA bound are between about 495 to 580 nm. Experiments typically involve measuring the fluorescence response within both emission maxima or at wavelengths for which the effect of interfering molecules such as hemoglobin can be eliminated as described in U.S. application Ser. No. 10/670958 and PCT/US2004/030521 and the calculation of the ratio ‘R’ of the two fluorescence intensities. The baseline value for this ratio, measured in the absence of analyte, is designated R0.
(§3) The intensity ratio (“R” value) is determined as follows. The ratio is calculated using the following formula: R=Fλ1/Fλ2 wherein, Fλ1 is the measured fluorescence intensities (intensity of sample with probe present minus intensity of sample without probe present) at wavelength 1 and Fλ2 is the measured fluorescence intensities (intensity of sample with probe present minus intensity of sample without probe present) at wavelength 2. Then, for a given probe, ΔR, the difference in R value between the measurement in the presence of the test compound (agent) and in the absence of the test compound (agent), is calculated as follows: ΔR=R+agent−R0 In some embodiments, the ΔR value may then be compared to some reference, for example, an agent with a known affinity for a given probe, by ΔR/ΔRreference. Measurements of fluorescence intensities are obtained using standard techniques.

[2] = Probe fluorescence ratio response to linolenic acid relative to ADIFAB2; conditions: response relative to ADIFAB2
Method in brief: (§4)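 Each fatty acid's response was expressed relative to ADIFAB2, the rI-FABP-L72A probe, as ΔR/ΔRreference. ΔR is the change in the background-corrected two-wavelength intensity ratio R=Fλ1/Fλ2 from its analyte-free baseline R0. Emission was read near about 420-480 nm for unbound and about 495-580 nm for FFA-bound probe.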

[3] = Probe fluorescence ratio response to arachidonic acid relative to ADIFAB2; conditions: arachidonic acid; response relative to ADIFAB2
Method in brief: as §4

[4] = Probe fluorescence ratio response to palmitic acid relative to ADIFAB2; conditions: response relative to ADIFAB2
Method in brief: as §4

[5] = Probe fluorescence ratio response to linoleic acid relative to ADIFAB2; conditions: response relative to ADIFAB2
Method in brief: as §4

[6] = Probe fluorescence ratio response to oleic acid relative to ADIFAB2; conditions: response relative to ADIFAB2
Method in brief: as §4

[7] = Probe fluorescence ratio response to palmitoleic acid relative to ADIFAB2; conditions: response relative to ADIFAB2
Description: as §1, §2, §3

Molecule	DR/DR SA [1]	DR/DR LNA [2]	DR/DR AA [3]	DR/DR PA [4]	DR/DR LA [5]	DR/DR OA [6]	DR/DR POA [7]
72T 74V (protein, listed as Rattus norvegicus, PEPTIDE (1)...(131) wild-type rat intestinal fatty acid binding protein) AFDGTWKVDRNENYEKFMEKMGINVVKRKLGAHDNLKLTITQEGNKFTVKESSNFRNIDVVFELGVDFAYSTAVGTELTGTWTMEGNKLVGKFKRVDNGKELIAVREISGNELIQTYTYEGVEAKRIFKKE	1.781	3.680	2.680	3.149	3.630	2.957	4.074
72G 73W (protein, listed as Rattus norvegicus, PEPTIDE (1)...(131) wild-type rat intestinal fatty acid binding protein) AFDGTWKVDRNENYEKFMEKMGINVVKRKLGAHDNLKLTITQEGNKFTVKESSNFRNIDVVFELGVDFAYSGWDGTELTGTWTMEGNKLVGKFKRVDNGKELIAVREISGNELIQTYTYEGVEAKRIFKKE	0.294	3.637	2.260	2.968	2.698	1.106	4.082
72T 73V 74V (protein, listed as Rattus norvegicus, PEPTIDE (1)...(131) wild-type rat intestinal fatty acid binding protein) AFDGTWKVDRNENYEKFMEKMGINVVKRKLGAHDNLKLTITQEGNKFTVKESSNFRNIDVVFELGVDFAYSTVVGTELTGTWTMEGNKLVGKFKRVDNGKELIAVREISGNELIQTYTYEGVEAKRIFKKE	1.918	3.618	3.237	2.987	3.502	3.166	4.015
72T 73V 74L (protein, listed as Rattus norvegicus, PEPTIDE (1)...(131) wild-type rat intestinal fatty acid binding protein) AFDGTWKVDRNENYEKFMEKMGINVVKRKLGAHDNLKLTITQEGNKFTVKESSNFRNIDVVFELGVDFAYSTVLGTELTGTWTMEGNKLVGKFKRVDNGKELIAVREISGNELIQTYTYEGVEAKRIFKKE	1.411	3.508	2.774	2.674	3.165	2.832	3.642
72W 73T 74G (protein, listed as Rattus norvegicus, PEPTIDE (1)...(131) wild-type rat intestinal fatty acid binding protein) AFDGTWKVDRNENYEKFMEKMGINVVKRKLGAHDNLKLTITQEGNKFTVKESSNFRNIDVVFELGVDFAYSWTGGTELTGTWTMEGNKLVGKFKRVDNGKELIAVREISGNELIQTYTYEGVEAKRIFKKE	1.040	3.394	2.808	2.934	3.099	2.514	4.105
72S 73L 74A (protein, listed as Rattus norvegicus, PEPTIDE (1)...(131) wild-type rat intestinal fatty acid binding protein) AFDGTWKVDRNENYEKFMEKMGINVVKRKLGAHDNLKLTITQEGNKFTVKESSNFRNIDVVFELGVDFAYSSLAGTELTGTWTMEGNKLVGKFKRVDNGKELIAVREISGNELIQTYTYEGVEAKRIFKKE	2.574	3.322	3.336	3.293	3.455	3.495	3.923
72T 74I (protein, listed as Rattus norvegicus, PEPTIDE (1)...(131) wild-type rat intestinal fatty acid binding protein) AFDGTWKVDRNENYEKFMEKMGINVVKRKLGAHDNLKLTITQEGNKFTVKESSNFRNIDVVFELGVDFAYSTAIGTELTGTWTMEGNKLVGKFKRVDNGKELIAVREISGNELIQTYTYEGVEAKRIFKKE	1.806	3.169	2.502	2.476	3.156	2.660	3.410
72S 73V 74V (protein, listed as Rattus norvegicus, PEPTIDE (1)...(131) wild-type rat intestinal fatty acid binding protein) AFDGTWKVDRNENYEKFMEKMGINVVKRKLGAHDNLKLTITQEGNKFTVKESSNFRNIDVVFELGVDFAYSSVVGTELTGTWTMEGNKLVGKFKRVDNGKELIAVREISGNELIQTYTYEGVEAKRIFKKE	1.058	3.088	2.712	2.091	3.085	2.556	3.322
72T 73W 74L (protein, listed as Rattus norvegicus, PEPTIDE (1)...(131) wild-type rat intestinal fatty acid binding protein) AFDGTWKVDRNENYEKFMEKMGINVVKRKLGAHDNLKLTITQEGNKFTVKESSNFRNIDVVFELGVDFAYSTWLGTELTGTWTMEGNKLVGKFKRVDNGKELIAVREISGNELIQTYTYEGVEAKRIFKKE	1.217	3.009	2.721	2.727	2.819	2.340	3.574
72T 73Q 74A (protein, listed as Rattus norvegicus, PEPTIDE (1)...(131) wild-type rat intestinal fatty acid binding protein) AFDGTWKVDRNENYEKFMEKMGINVVKRKLGAHDNLKLTITQEGNKFTVKESSNFRNIDVVFELGVDFAYSTQAGTELTGTWTMEGNKLVGKFKRVDNGKELIAVREISGNELIQTYTYEGVEAKRIFKKE	2.318	2.850	2.392	3.473	3.163	3.136	3.632
21Y 78I 102I 72A (protein, listed as Rattus norvegicus, PEPTIDE (1)...(131) wild-type rat intestinal fatty acid binding protein) AFDGTWKVDRNENYEKFMEKYGINVVKRKLGAHDNLKLTITQEGNKFTVKESSNFRNIDVVFELGVDFAYSAADGTEITGTWTMEGNKLVGKFKRVDNGKEIIAVREISGNELIQTYTYEGVEAKRIFKKE	2.774	2.454	3.536	1.870	2.879	3.424	2.089
